Data published in article PMC10415118.

Columns and labels:
Test in all cases: purified protein
purified protein [1] = substrate: Cc1cn([C@@H]2O[C@H](CO)[C@@H](O)[C@H]2O)c(=O)nc1N; conditions: 30 °C, 5mC 1-200 mM
purified protein [2] = substrate: Cc1cn([C@H]2C[C@H](O)[C@@H](CO)O2)c(=O)nc1N; conditions: 30 °C, 5mdC 1-100 mM
purified protein [3] = substrate: CO[C@@H]1[C@H](O)[C@@H](CO)O[C@H]1n1ccc(N)nc1=O; conditions: 30 °C, 2OmC 1-200 mM
purified protein [4] = substrate: Nc1ccn([C@H]2C[C@H](O)[C@@H](CO)O2)c(=O)n1; conditions: 30 °C, dC 0.05-5 mM
purified protein [5] = substrate: Nc1ccn([C@@H]2O[C@H](CO)[C@@H](O)[C@H]2O)c(=O)n1; conditions: 30 °C, C 0.1-10 mM

B1: CDA (AtCDA; CYTIDINE DEAMINASE; CDA-Strep) (Arabidopsis thaliana) (protein)
chain: MDKPSFVIQSKEAESAAKQLGVSVIQLLPSLVKPAQSYARTPISKFNVAVVGLGSSGRIFLGVNVEFPNLPLHHSIHAEQFLVTNLTLNGERHLNFFAVSAAPCGHCRQFLQEIRDAPEIKILITDPNNSADSDSAADSDGFLRLGSFLPHRFGPDDLLGKDHPLLLESHDNHLKISDLDSICNGNTDSSADLKQTALAAANRSYAPYSLCPSGVSLVDCDGKVYRGWYMESAAYNPSMGPVQAALVDYVANGGGGGYERIVGAVLVEKEDAVVRQEHTARLLLETISPKCEFKVFHCYEA
Q: How did the Km (purified protein [1]) turn out when B1 was run?
A: 8.05 ± 0.96 mM

Q: What about the kcat (purified protein [1]) of the same protein?
A: 35.4 ± 1.04 s⁻¹

Q: What about the kcat/Km (purified protein [1]) of the same protein?
A: 4400 M⁻¹ s⁻¹

Q: And the Km (purified protein [2])?
A: 3.92 ± 0.61 mM

Q: And the kcat (purified protein [2])?
A: 54.1 ± 1.68 s⁻¹

Q: What about the kcat/Km (purified protein [2]) of the same protein?
A: 13800 M⁻¹ s⁻¹

Q: And the Km (purified protein [3])?
A: 8.34 ± 1.12 mM

Q: What about the kcat (purified protein [3]) of the same protein?
A: 35.5 ± 1.12 s⁻¹

Q: And the kcat/Km (purified protein [3])?
A: 4300 M⁻¹ s⁻¹

Q: What about the Km (purified protein [4]) of the same protein?
A: 0.28 ± 0.05 mM

Q: What about the kcat (purified protein [4]) of the same protein?
A: 18.1 ± 0.66 s⁻¹

Q: What about the kcat/Km (purified protein [4]) of the same protein?
A: 64800 M⁻¹ s⁻¹

Q: What about the Km (purified protein [5]) of the same protein?
A: 0.82 ± 0.15 mM

Q: And the kcat (purified protein [5])?
A: 29.4 ± 1.65 s⁻¹

Q: What about the kcat/Km (purified protein [5]) of the same protein?
A: 35900 M⁻¹ s⁻¹
